# Laboratory results reported in patent US11827690B2, “ApoC-II mimetic peptides” (THE UNITED STATES OF AMERICA, as represented by the …, priority 2017, dated 2023).
# Non-standard residues stand in square brackets, D forms with d. No end group written: not given here. *: point of attachment. Stearoyl = CCCCCCCCCCCCCCCCCC(=O)*; Palmitoyl = CCCCCCCCCCCCCCCC(=O)*; Nle = CCCC[C@H](N)C(=O)O; Aib = CC(C)(N)C(=O)O
# Assays:
# [1] = target: T1, bovine LPL (Bos taurus, UniProt P11151); test: in vitro LPL assay using apoC-II deficient patient sera as substrate; format: biochemical; details: for effect of lipidation on ability of C2thirdhelix to promote TG hydrolysis: FIG. 9; for LPL activation / TG hydrolysis: FIG. 52; for promoting TG hydrolysis in the presence of LPL: FIG. 6
# T1 sequence (P11151 29-478): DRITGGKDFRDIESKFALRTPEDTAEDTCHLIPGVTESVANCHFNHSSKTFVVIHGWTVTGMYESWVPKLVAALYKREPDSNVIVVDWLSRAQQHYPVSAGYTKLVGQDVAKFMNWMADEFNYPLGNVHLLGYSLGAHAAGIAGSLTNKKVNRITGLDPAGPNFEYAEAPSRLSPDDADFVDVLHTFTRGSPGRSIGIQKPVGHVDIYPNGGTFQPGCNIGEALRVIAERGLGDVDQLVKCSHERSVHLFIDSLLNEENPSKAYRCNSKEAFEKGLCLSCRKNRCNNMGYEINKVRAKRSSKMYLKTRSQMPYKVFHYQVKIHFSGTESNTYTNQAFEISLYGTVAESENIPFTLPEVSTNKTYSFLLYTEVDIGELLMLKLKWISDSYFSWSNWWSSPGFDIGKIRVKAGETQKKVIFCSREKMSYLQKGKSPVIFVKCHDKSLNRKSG
# Description: (§1) Preparation of LPL: frozen stock of 10 μL of 0.5 mg/mL bovine LPL was used and diluted 1:100 (10 μL+990 μL of PBS).
# Preparation of 20% Intralipid: 2000 mg/dL TG Intralipid was used to prepare 3 mg/dL TG Intralipid by diluting 1.5 μL of the stock with 998.5 μL PBS, or by diluting the stock 1:10 first and then mixing 15 μL of the diluted stock with 985 μL PBS. When apoC-II deficient human serum was used as a substrate, a frozen 10 μL aliquot of 1711 mg/dL (TG) was diluted by adding 990 μL PBS (1:100 dilution).
# (§2) Preparation of free fatty acid (NEFA) assay: NEFA reagents were purchased from Wako Diagnostics, Wako Life Sciences, Inc. Reagent A was prepared by mixing Coloring Reagent A with Solvent A (225 μL per well). Reagent B was prepared by mixing Coloring Reagent B with Solvent B (75 μL per well). 5 nmoL oleic acid standard was prepared by diluting 20 μL of 1 mM oleic acid stock (WAKO NEFA standard solution) with 180 μL of 0.2% BSA.
# (§3) LPL activity assay: 10 μL of Intralipid, human plasma sample, or mouse plasma sample was added in each well using repeater pipette. 10 μL (or 15 μL in the wells with no LPL control) of PBS and 10 μL of 1% BSA was added in each well using repeater pipette. 10 μL of peptides were added to corresponding wells in vertical triplicates (lowest concentration is on a left, highest is on the right). The plate was spun down at 1000 RPM for 10 seconds to mix and to remove the solutions from the wall of each well. The plate was put on ice and 5 μL of LPL was added using repeater pipette. The plate was spun down again at 1000 RPM for 10 seconds. The plate was covered and put back on ice for an incubation of 30 min. The plate was then moved to 37° C. and incubated for 1 hour.
# (§4) Free fatty acids (NEFA) assay: 45 μL of 5 nmoL standard and 0 nmoL control (0.2% BSA) were added to corresponding wells. 225 μL of reagent A was added in each well using the reagent tray and 12-channel pipette. The plate was incubated for 10 min before 75 μL of reagent B was added to each well using the reagent tray and 12-channel pipette. The plate was not covered due to the high volume. The absorbance at 550 nm and 660 nm was measured.
# [2] = target: T1, bovine LPL; test: in vitro LPL assay using hypertriglyceridemia patient sera as substrate; format: biochemical; details: patient sera TG about 1000 mg/dL to about 1700 mg/dL, FIGS. 15A-D
# Description: as §1, §2, §3, §4
# [3] = test system: VLDL isolated from human plasma; test: ApoC-III displacement study in VLDL isolated from human plasma; format: binding; details: SDS PAGE
# Description: VLDL or chylomicrons isolated from human plasma were incubated with an apoC-II mimetic peptide for 1 hour at 37° C. and washed 3 times with PBS using spin filter with 100 kDa cutoff membrane. […] ApoC-I, apoC-II, apoC-III, and apoE bands were identified by their corresponding size.
# [4] = test system: apoC-II knockout mice; test: plasma lipids of apoC-II knockout mice after peptide injection; format: in vivo
# Description: C57Bl/6 mice (wild-type), apoC-II knockout (apoC-II KO) mice, and apoC-III transgenic mice were used for in vivo study. The C57Bl/6 mice (wild-type) were purchased from Taconic Biosciences Inc. The apoC-II KO mice were created as described in Sakurai et al., J Pharmacol Exp Ther 356:341-353, 2016. The apoC-III transgenic mice were generated by overexpressing human apoC-III in C57Bl/6 mice. See Qu et al., J. Lipid Res. 48:1476-1487, 2007.
# Mice were fasted overnight (approximately 12 hours) before the study and 6 hours during the study, the next day. The apoC-II mimetic peptides were synthetically produced and free of biological contamination (not available as FDA approved compounds/treatment). […] W.) administered either subcutaneous injection (S.Q. or S.C.), intraperitoneal injection (I.P.) or intravenous injection (I.V.) (in a sterile, pharmaceutical grade PBS solution at a volume ≤200 μL) as described in Sakurai et al., J Pharmacol Exp Ther 356:341-353, 2016.
# [5] = 0.25 μmol/kg of body weight intraperitoneal, FIG. 24
# [6] = concentrations from 100 pM to 10 μM, FIG. 12
substance,measurement,setting,value
DYLKAVFEKLRDLYSKFTAAKC16STYTGIFTDQVLSVLKGEE (DYLKAVFEKLRDLYSKFTAAK(Palmitoyl)STYTGIFTDQVLSVLKGEE) [Delta4c],TG hydrolysis,"[1]; peptide concentrations from 10 pM to 100 μM, FIG. 13",promoted TG hydrolysis
AKC18STYTGIFTDQVLSVLKGEE (AK(Stearoyl)STYTGIFTDQVLSVLKGEE) [C2thirdhelixStearylpos2],effect of lipidation on ability of C2thirdhelix to promote TG hydrolysis,[1],lipidation enhanced the ability of C2thirdhelix to promote TG hydrolysis
DYLKEVFEKLRDLYEKFTAALSTYTGIFTDQVLSVLKGEE (not fully specified) [Delta6L],LPL activation,[2],activated LPL in vitro
AMSTYTGIFTDQVLSVLKC18GEE (AMSTYTGIFTDQVLSVLK(Stearoyl)GEE) [C2thirdhelixStearylpos17],effect of lipidation on ability of C2thirdhelix to promote TG hydrolysis,[1],lipidation enhanced the ability of C2thirdhelix to promote TG hydrolysis
DYLKEVFEKLRDLYEKFTAAnLSTYTGIFTDQVLSVLKGEENH2 (DYLKEVFEKLRDLYEKFTAA[Nle]STYTGIFTDQVLSVLKGEE-NH2; N-terminus assumed; SMILES CCCC[C@H](NC(=O)[C@H](C)NC(=O)[C@H](C)NC(=O)[C@@H](NC(=O)[C@H](Cc1ccccc1)NC(=O)[C@H](CCCCN)NC(=O)[C@H](CCC(=O)O)NC(=O)[C@H](Cc1ccc(O)cc1)NC(=O)[C@H](CC(C)C)NC(=O)[C@H](CC(=O)O)NC(=O)[C@H](CCCNC(=N)N)NC(=O)[C@H](CC(C)C)NC(=O)[C@H](CCCCN)NC(=O)[C@H](CCC(=O)O)NC(=O)[C@H](Cc1ccccc1)NC(=O)[C@@H](NC(=O)[C@H](CCC(=O)O)NC(=O)[C@H](CCCCN)NC(=O)[C@H](CC(C)C)NC(=O)[C@H](Cc1ccc(O)cc1)NC(=O)[C@@H](N)CC(=O)O)C(C)C)[C@@H](C)O)C(=O)N[C@@H](CO)C(=O)N[C@H](C(=O)N[C@@H](Cc1ccc(O)cc1)C(=O)N[C@H](C(=O)NCC(=O)N[C@H](C(=O)N[C@@H](Cc1ccccc1)C(=O)N[C@H](C(=O)N[C@@H](CC(=O)O)C(=O)N[C@@H](CCC(N)=O)C(=O)N[C@H](C(=O)N[C@@H](CC(C)C)C(=O)N[C@@H](CO)C(=O)N[C@H](C(=O)N[C@@H](CC(C)C)C(=O)N[C@@H](CCCCN)C(=O)NCC(=O)N[C@@H](CCC(=O)O)C(=O)N[C@@H](CCC(=O)O)C(N)=O)C(C)C)C(C)C)[C@@H](C)O)[C@@H](C)CC)[C@@H](C)O)[C@@H](C)O) [Delta6-NH],apoC-III displacement in VLDL,[3],capable of displacing apoC-III
same,plasma TG,[4]; [5],significant reduction of plasma TG
DKVKEFLSEYWEKAKEFAPAVSTYTGIFTDQVLSVLKGEE [Delta13-31-PV],LPL activation / TG hydrolysis,[1],promoted TG hydrolysis in vitro in a dose-dependent manner
C18DYLKAVFEKKC18RDLYSKFTAAnLSTYTGIFTDQVLSVLKGEE (Stearoyl-DYLKAVFEKK(Stearoyl)RDLYSKFTAA[Nle]STYTGIFTDQVLSVLKGEE) [bi-acyl-Delta4],promoting TG hydrolysis in the presence of LPL,[1],capable of promoting TG hydrolysis in the presence of LPL
DYLKEVFEKLRDLYEKKC18TPAnLSTYTGIFTDQVLSVLKGEE (DYLKEVFEKLRDLYEKK(Stearoyl)TPA[Nle]STYTGIFTDQVLSVLKGEE) [Delta6b-P],apoC-III displacement in VLDL,[3],capable of displacing apoC-III
same,plasma TG,[4]; [5],significant reduction of plasma TG
DYLKAVFEKLRDLYSKFFPAMSTYTGIFTDQVLSVLKGEE [Delta4b T18F],TG hydrolysis,[1]; [6],promoted TG hydrolysis in a dose-dependent manner
DYLKEVFEKLRDLYEKFTPALSTYTGIFTDQVLSVLKGEE [Delta6PL],LPL activation,[2],activated LPL in vitro
"DYLKEVAibEKLRDLYEKAibFPAVSTYTGIFTDQVLSVLKGEE (DYLKEV[Aib]EKLRDLYEK[Aib]FPAVSTYTGIFTDQVLSVLKGEE) [Delta6T18F-PV-AIB7,17]",LPL activation / TG hydrolysis,[1],activated LPL in vitro
DYLKAVFEKKC18RDLYSKFTPAMSTYTGIFTDQVLSVLKGEE (DYLKAVFEKK(Stearoyl)RDLYSKFTPAMSTYTGIFTDQVLSVLKGEE) [Delta4b-2],TG hydrolysis,[1]; [6],promoted TG hydrolysis in a dose-dependent manner
C18DYLKAVFEKLRDLYSKFTAAnLSTYTGIFTDQVLSVLKGEE (Stearoyl-DYLKAVFEKLRDLYSKFTAA[Nle]STYTGIFTDQVLSVLKGEE) [mono-acyl-Delta4],promoting TG hydrolysis in the presence of LPL,[1],capable of promoting TG hydrolysis in the presence of LPL
DYLKEVFEKLRDLYEKFFPAVSTYTGIFTDQVLSVLKGEE [Delta6T18F-PV],LPL activation / TG hydrolysis,[1],activated LPL in vitro
same,time of maximum reduction of plasma TG,"[4]; 0.1 μmol/kg intraperitoneally, after the peptide injection",about 6 hours
same,plasma TG,"[4]; 0.1 μmol/kg of body weight intraperitoneally, FIG. 53",rapid reduction of plasma TG
DYLKAVKC18EKLRDLYSKFTPAMSTYTGIFTDQVLSVLKGEE (DYLKAVK(Stearoyl)EKLRDLYSKFTPAMSTYTGIFTDQVLSVLKGEE) [Delta4b-1],TG hydrolysis,[1]; [6],promoted TG hydrolysis in a dose-dependent manner
C18AMSTYTGIFTDQVLSVLKGEE (Stearoyl-AMSTYTGIFTDQVLSVLKGEE) [C2thirdhelixStearylpos1],effect of lipidation on ability of C2thirdhelix to promote TG hydrolysis,[1],lipidation enhanced the ability of C2thirdhelix to promote TG hydrolysis
DYLKEVFEKLRDLYEKKC18TAAnLSTYTGIFTDQVLSVLKGEE (DYLKEVFEKLRDLYEKK(Stearoyl)TAA[Nle]STYTGIFTDQVLSVLKGEE) [Delta6b-A],apoC-III displacement in VLDL,[3],capable of displacing apoC-III
same,plasma TG,[4]; [5],significant reduction of plasma TG
